{
  "source": "patent US20170226175A1",
  "about": "(HANMI PHARM, published 2017)",
  "binders": {"B1": {"name": "hGLP-1R/GST (receptor)", "chain": "RPQGATVSLWETVQKWREYRRQCQRSLTEDPPPATDLFCNRTFDEYACWPDGEPGSFVNVSCPWYLPWASSVPQGHVYRFCTAEGLWLQKDNSSLPWRDLSECEESKRGERSSPEEQLLFLY", "notes": "Expressed from CHO-DG44 cells and immobilized on a CM5 chip by amine coupling; also called GLP-1 receptor; GLP-1 receptor in hGLP-1R/GST form; not shown: GST (glutathione S-transferase) fusion partner"}},
  "test_in_all_cases": "SPR (BIACORE 3000), hGLP-1R/GST amine-coupled to CM5 chip, 1:1 Langmuir fit",
  "key": {"[1]": {"target": "desamino-histidyl-exendin-4 (DA-exendin-4)", "procedure": "(§1) The binding activity of the GLP-1 receptor and the insulinotropic peptide derivative with a modified N-terminal charge were measured using a surface plasmon resonance (SPR) apparatus (BIACORE 3000, GE Healthcare).\n(§2) The GLP-1 receptor was expressed from CHO-DG44 cells in hGLP-1R/GST form. The expressed hGLP-1R/GST was immobilized to a CM5 chip by amine coupling. To the hGLP-1R/GST-immobilized CM5 chip, the insulinotropic peptide derivatives with a modified N-terminal charge were diluted by concentration and then added to determine the binding activity with the GLP-1 receptor."}, "[2]": {"target": "DA-exendin-4-propyl-amide", "procedure": "as §1, §2"}, "[3]": {"target": "Native exendin-4 (exenatide: BYETTA)", "procedure": "as §1, §2"}, "[4]": {"target": "imidazoacetyl-exendin-4 (CA-exendin-4)", "procedure": "as §1, §2"}, "[5]": {"target": "beta-hydroxy imidazopropionyl-exendin-4 (HY-exendin-4)", "procedure": "as §1, §2"}},
  "data": [
    {"binder": "B1", "values": [
      {"measurement": "Kd", "setting": "[1]", "result": 32.2, "unit": "nM"},
      {"measurement": "koff", "setting": "[1]", "result": 0.00365, "unit": "s⁻¹"},
      {"measurement": "kon", "setting": "[1]", "result": 113000, "unit": "M⁻¹ s⁻¹"},
      {"measurement": "Kd", "setting": "[2]", "result": 32.6, "unit": "nM"},
      {"measurement": "koff", "setting": "[2]", "result": 0.00335, "unit": "s⁻¹"},
      {"measurement": "kon", "setting": "[2]", "result": 104000, "unit": "M⁻¹ s⁻¹"},
      {"measurement": "Kd", "setting": "[3]", "result": 1.4, "unit": "nM"},
      {"measurement": "koff", "setting": "[3]", "result": 0.000526, "unit": "s⁻¹"},
      {"measurement": "kon", "setting": "[3]", "result": 370000, "unit": "M⁻¹ s⁻¹"},
      {"measurement": "Kd", "setting": "[4]", "result": 26.3, "unit": "nM"},
      {"measurement": "koff", "setting": "[4]", "result": 0.00315, "unit": "s⁻¹"},
      {"measurement": "kon", "setting": "[4]", "result": 120000, "unit": "M⁻¹ s⁻¹"},
      {"measurement": "Kd", "setting": "[5]", "result": 42.7, "unit": "nM"},
      {"measurement": "koff", "setting": "[5]", "result": 0.00383, "unit": "s⁻¹"},
      {"measurement": "kon", "setting": "[5]", "result": 90000, "unit": "M⁻¹ s⁻¹"}
    ]}
  ]
}
